The text below walks through data of publication PMC8717925 (Nature structural & molecular biology, 2020).

B1: ARPC2 subunit of S. pombe Arp2/3 complex (natural protein)
chain: MLSLDYNNIFIYELLTERFSSENPSSIDQVVTDFDGVTFHISTPEEKTKILISLSMKCYPELVNYGTLDLLKQIYGAYVHEPEMGYNFSILIDLQQLPATDEEKEQLAMSISMLKRNVLAAPFHRAFTKQAELADLARKDPENAPMLDKQATSQELMAIHYRDEETIVLWPEHDRVTVVFSTKFREETDRIFGKVFLQEFVDARRRPAIQTAPQVLFSYRDPPLEIRDIQGIQKGDDFGFVTFVLFERHFTPQNREDCISHIQVFRNTLHFHIKASKAYMHQRMRKRVADFQKVLNRAKPDVELERKTATGRSFVRA

The target of experiment [1] is T1, Dip1 (S. pombe WISH/DIP/SPIN90 family nucleation promoting factor) (S. pombe, UniProt O74771 1-374).
T1 sequence (looked up): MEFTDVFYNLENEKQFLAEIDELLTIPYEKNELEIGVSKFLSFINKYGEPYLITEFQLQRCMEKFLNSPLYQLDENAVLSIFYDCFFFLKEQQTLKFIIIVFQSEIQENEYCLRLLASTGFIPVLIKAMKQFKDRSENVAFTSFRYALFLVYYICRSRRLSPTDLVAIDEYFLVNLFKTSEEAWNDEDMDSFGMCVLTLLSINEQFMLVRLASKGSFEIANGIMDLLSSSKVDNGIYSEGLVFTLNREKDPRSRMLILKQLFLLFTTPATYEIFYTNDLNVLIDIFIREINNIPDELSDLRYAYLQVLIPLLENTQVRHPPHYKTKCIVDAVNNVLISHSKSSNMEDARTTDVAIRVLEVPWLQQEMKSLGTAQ
In words: cryo-EM structure.

For experiment [2], the target named is B1. In words: cryo-EM structure.

For B1, the binding result in experiment [1] is “binds”.

B2: ARPC4 subunit of S. pombe Arp2/3 complex (natural protein)
chain: not shown
On to B2, for which the binding result in experiment [1] and in experiment [2] was “binds” each time.
